Source: PMC9482650, “Quantitative fragmentomics allow affinity mapping of interactomes” (Nature Communications, 2022)

Key:
Assay in all cases: holdup assay
Set-up in all cases: key: below the threshold = too weak to quantify, mostly under pKd 3.1 to 4
DLG4_2, P78352 = target: DLG4_2, P78352
DLG4_3, P78352 = target: DLG4_3, P78352
DLG5_1, Q8TDM6 = target: DLG5_1, Q8TDM6
FRMPD2_1, Q68DX3 = target: FRMPD2_1, Q68DX3
FRMPD2_2, Q68DX3 = target: FRMPD2_2, Q68DX3
GRID2IP_1, A4D2P6 = target: GRID2IP_1, A4D2P6
GRID2IP_2, A4D2P6 = target: GRID2IP_2, A4D2P6
GRIP1_5, Q9Y3R0 = target: T1, GRIP1_5, Q9Y3R0
T1 sequence (Q9Y3R0 568-668, limits assumed, looked up): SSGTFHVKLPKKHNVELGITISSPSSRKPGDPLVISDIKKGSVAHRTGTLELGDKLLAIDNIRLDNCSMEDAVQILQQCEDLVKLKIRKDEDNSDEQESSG

IL16_1, Q14005 = target: IL16_1, Q14005
LDB3, O75112 = target: LDB3, O75112
LNX2_2, Q8N448 = target: T2, LNX2_2, Q8N448
T2 sequence (Q8N448 334-432, limits assumed, looked up): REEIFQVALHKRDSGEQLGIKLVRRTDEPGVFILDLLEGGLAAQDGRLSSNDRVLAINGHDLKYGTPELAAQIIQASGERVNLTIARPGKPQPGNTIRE

MAGI2_2, Q86UL8 = target: MAGI2_2, Q86UL8
MAGI2_3, Q86UL8 = target: MAGI2_3, Q86UL8
MAGI2_5, Q86UL8 = target: MAGI2_5, Q86UL8
MAGI3_2, Q5TCQ9 = target: MAGI3_2, Q5TCQ9
MPDZ_12, O75970 = target: T3, MPDZ_12, O75970
T3 sequence (O75970 1857-1958, limits assumed, looked up): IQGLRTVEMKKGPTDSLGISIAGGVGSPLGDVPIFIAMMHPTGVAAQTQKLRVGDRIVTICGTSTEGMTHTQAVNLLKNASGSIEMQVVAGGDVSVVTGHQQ

NHERF3_4, Q5T2W1 = target: T4, NHERF3_4, Q5T2W1
T4 sequence (Q5T2W1 373-468, limits assumed, looked up): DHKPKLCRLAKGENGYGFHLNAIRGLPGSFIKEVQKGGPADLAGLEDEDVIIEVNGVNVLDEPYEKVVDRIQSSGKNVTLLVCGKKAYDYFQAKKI

NOS1, P29475 = target: NOS1, P29475
PARD3_3, Q8TEW0 = target: PARD3_3, Q8TEW0
PDZRN3_1, Q9UPQ7 = target: T5, PDZRN3_1, Q9UPQ7
T5 sequence (Q9UPQ7 244-349, limits assumed, looked up): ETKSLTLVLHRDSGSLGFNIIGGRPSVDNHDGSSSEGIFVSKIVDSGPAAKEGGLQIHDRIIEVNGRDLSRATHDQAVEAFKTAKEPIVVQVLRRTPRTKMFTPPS

SCRIB_2, Q14160 = target: SCRIB_2, Q14160
SNTG1, Q9NSN8 = target: T6, SNTG1, Q9NSN8
T6 sequence (Q9NSN8 52-150, limits assumed, looked up): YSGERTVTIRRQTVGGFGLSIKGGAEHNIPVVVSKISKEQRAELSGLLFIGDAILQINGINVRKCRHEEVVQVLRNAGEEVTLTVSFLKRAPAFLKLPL

SNTG2, Q9NY99 = target: T7, SNTG2, Q9NY99
T7 sequence (Q9NY99 68-166, limits assumed, looked up): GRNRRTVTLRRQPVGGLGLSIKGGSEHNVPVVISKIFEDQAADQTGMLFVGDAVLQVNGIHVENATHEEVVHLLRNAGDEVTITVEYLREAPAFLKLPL

SNX27, Q96L92 = target: SNX27, Q96L92
SYNJ2BP, P57105 = target: T8, SYNJ2BP, P57105
T8 sequence (P57105 8-110, limits assumed, looked up): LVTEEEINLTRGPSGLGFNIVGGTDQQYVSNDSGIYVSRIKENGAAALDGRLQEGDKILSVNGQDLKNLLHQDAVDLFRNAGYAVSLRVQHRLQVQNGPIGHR

TIAM2, Q8IVF5 = target: T9, TIAM2, Q8IVF5
T9 sequence (Q8IVF5 885-986, limits assumed, looked up): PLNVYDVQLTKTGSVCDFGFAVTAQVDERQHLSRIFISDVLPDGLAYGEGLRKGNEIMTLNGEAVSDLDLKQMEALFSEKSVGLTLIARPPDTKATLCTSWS

TJP1_2, Q07157 = target: TJP1_2, Q07157
TX1BP3, O14907 = target: T10, TX1BP3, O14907
T10 sequence (O14907 10-122, limits assumed, looked up): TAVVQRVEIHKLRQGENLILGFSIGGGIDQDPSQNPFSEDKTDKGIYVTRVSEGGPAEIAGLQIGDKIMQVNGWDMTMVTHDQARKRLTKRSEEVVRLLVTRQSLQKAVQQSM

[1] = plain residues with an end cap or a label only (N-terminal biotin on a linker: ahx)
[2] = plain residues with an end cap or a label only (N-terminal biotin on a linker: ttds)

MAGI2_2, Q86UL8, sequence (Q86UL8 410-522): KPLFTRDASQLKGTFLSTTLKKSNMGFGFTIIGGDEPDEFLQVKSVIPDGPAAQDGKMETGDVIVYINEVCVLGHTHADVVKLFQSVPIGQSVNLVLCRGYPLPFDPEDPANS
MAGI2_3, Q86UL8, sequence (Q86UL8 600-682): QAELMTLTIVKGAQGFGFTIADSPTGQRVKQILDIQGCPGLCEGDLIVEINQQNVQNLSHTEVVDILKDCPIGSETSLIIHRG
FRMPD2_1, Q68DX3, sequence (Q68DX3 770-861): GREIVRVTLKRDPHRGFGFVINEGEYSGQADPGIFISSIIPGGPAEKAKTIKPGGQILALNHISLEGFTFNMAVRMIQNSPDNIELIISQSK
GRID2IP_1, A4D2P6, sequence (A4D2P6 1-87): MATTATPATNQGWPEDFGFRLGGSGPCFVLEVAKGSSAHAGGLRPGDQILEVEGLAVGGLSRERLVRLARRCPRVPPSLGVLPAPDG
NOS1, P29475, sequence (P29475 9-101): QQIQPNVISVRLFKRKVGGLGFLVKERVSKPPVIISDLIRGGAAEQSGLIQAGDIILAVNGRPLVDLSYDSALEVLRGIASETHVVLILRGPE
GRID2IP_2, A4D2P6, sequence (A4D2P6 272-370): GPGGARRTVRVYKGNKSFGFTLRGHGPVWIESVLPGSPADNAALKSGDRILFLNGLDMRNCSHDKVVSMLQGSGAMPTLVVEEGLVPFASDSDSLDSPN
TJP1_2, Q07157, sequence (Q07157 181-274): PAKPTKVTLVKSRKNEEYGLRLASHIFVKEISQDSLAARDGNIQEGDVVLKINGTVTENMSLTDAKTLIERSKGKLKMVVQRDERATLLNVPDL
SCRIB_2, Q14160, sequence (Q14160 857-960): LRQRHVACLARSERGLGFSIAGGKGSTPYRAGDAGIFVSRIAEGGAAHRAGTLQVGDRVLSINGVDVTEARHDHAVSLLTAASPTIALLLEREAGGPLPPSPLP
MAGI3_2, Q5TCQ9, sequence (Q5TCQ9 398-503): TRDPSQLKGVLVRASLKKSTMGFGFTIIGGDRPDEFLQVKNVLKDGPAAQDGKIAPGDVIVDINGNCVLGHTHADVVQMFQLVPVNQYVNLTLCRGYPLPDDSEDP
MAGI2_5, Q86UL8, sequence (Q86UL8 915-1017): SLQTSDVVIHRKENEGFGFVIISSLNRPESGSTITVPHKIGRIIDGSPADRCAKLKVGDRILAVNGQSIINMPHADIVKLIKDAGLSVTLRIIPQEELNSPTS
DLG5_1, Q8TDM6, sequence (Q8TDM6 617-713): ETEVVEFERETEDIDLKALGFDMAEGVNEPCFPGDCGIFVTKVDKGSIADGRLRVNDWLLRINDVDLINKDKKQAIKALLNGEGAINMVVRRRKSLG
IL16_1, Q14005, sequence (Q14005 210-306): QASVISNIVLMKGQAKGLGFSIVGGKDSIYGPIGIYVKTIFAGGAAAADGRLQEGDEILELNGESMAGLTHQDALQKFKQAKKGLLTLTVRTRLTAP
FRMPD2_2, Q68DX3, sequence (Q68DX3 944-1038): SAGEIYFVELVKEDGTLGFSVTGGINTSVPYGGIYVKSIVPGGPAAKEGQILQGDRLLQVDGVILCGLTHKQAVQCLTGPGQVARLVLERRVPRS
DLG4_3, P78352, sequence (P78352 306-403): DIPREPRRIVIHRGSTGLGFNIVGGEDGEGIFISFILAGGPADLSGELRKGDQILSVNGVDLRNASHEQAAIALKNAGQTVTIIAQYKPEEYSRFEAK
PARD3_3, Q8TEW0, sequence (Q8TEW0 582-685): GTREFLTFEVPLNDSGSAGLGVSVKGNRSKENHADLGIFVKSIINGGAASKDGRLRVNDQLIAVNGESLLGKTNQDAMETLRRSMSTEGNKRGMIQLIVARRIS
LDB3, O75112, sequence (O75112 1-94): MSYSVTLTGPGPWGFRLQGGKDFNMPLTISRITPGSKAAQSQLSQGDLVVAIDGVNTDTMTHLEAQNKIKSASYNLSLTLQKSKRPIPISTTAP
DLG4_2, P78352, sequence (P78352 155-259): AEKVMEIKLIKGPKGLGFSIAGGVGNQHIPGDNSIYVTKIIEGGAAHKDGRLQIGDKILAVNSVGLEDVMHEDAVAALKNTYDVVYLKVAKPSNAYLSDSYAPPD

TVICWPGSLV [LNX2, Q8N448]
pKd (DLG4_2, P78352; [1]): 4.36
pKd (DLG4_3, P78352; [1]): 3.58
pKd (DLG5_1, Q8TDM6; [1]): below the threshold
pKd (FRMPD2_1, Q68DX3; [1]): 4.13
pKd (FRMPD2_2, Q68DX3; [1]): 3.85
pKd (GRID2IP_1, A4D2P6; [1]): below the threshold
pKd (GRID2IP_2, A4D2P6; [1]): 3.95
pKd (GRIP1_5, Q9Y3R0; [1]): below the threshold
pKd (IL16_1, Q14005; [1]): 4.54
pKd (LDB3, O75112; [1]): below the threshold
pKd (LNX2_2, Q8N448; [1]): 4.32
pKd (MAGI2_2, Q86UL8; [1]): 4.26
pKd (MAGI2_3, Q86UL8; [1]): 3.66
pKd (MAGI2_5, Q86UL8; [1]): 4.35
pKd (MAGI3_2, Q5TCQ9; [1]): 4.58
pKd (MPDZ_12, O75970; [1]): 3.84
pKd (NHERF3_4, Q5T2W1; [1]): below the threshold
pKd (NOS1, P29475; [1]): 3.82
pKd (PARD3_3, Q8TEW0; [1]): 3.68
pKd (PDZRN3_1, Q9UPQ7; [1]): 4.17
pKd (SCRIB_2, Q14160; [1]): 3.65
pKd (SNTG1, Q9NSN8; [1]): 3.7
pKd (SNTG2, Q9NY99; [1]): 3.73
pKd (SNX27, Q96L92; [1]): 3.95
pKd (SYNJ2BP, P57105; [1]): 5.53
pKd (TIAM2, Q8IVF5; [1]): below the threshold
pKd (TJP1_2, Q07157; [1]): below the threshold
pKd (TX1BP3, O14907; [1]): 4.59

SGSRPSATVV [HPV73-E6, Q82005]
pKd (DLG4_2, P78352; [2]): 4.14
pKd (DLG4_3, P78352; [2]): below the threshold
pKd (DLG5_1, Q8TDM6; [2]): below the threshold
pKd (FRMPD2_1, Q68DX3; [2]): 3.51
pKd (FRMPD2_2, Q68DX3; [2]): below the threshold
pKd (GRID2IP_1, A4D2P6; [2]): below the threshold
pKd (GRID2IP_2, A4D2P6; [2]): below the threshold
pKd (GRIP1_5, Q9Y3R0; [2]): below the threshold
pKd (IL16_1, Q14005; [2]): below the threshold
pKd (LDB3, O75112; [2]): below the threshold
pKd (LNX2_2, Q8N448; [2]): 4.98
pKd (MAGI2_2, Q86UL8; [2]): 4.19
pKd (MAGI2_3, Q86UL8; [2]): 3.62
pKd (MAGI2_5, Q86UL8; [2]): 3.7
pKd (MAGI3_2, Q5TCQ9; [2]): 4.91
pKd (MPDZ_12, O75970; [2]): below the threshold
pKd (NHERF3_4, Q5T2W1; [2]): 3.6
pKd (NOS1, P29475; [2]): 3.8
pKd (PARD3_3, Q8TEW0; [2]): 3.76
pKd (PDZRN3_1, Q9UPQ7; [2]): below the threshold
pKd (SCRIB_2, Q14160; [2]): 3.56
pKd (SNTG1, Q9NSN8; [2]): 3.6
pKd (SNTG2, Q9NY99; [2]): below the threshold
pKd (SNX27, Q96L92; [2]): below the threshold
pKd (SYNJ2BP, P57105; [2]): 3.71
pKd (TIAM2, Q8IVF5; [2]): below the threshold
pKd (TJP1_2, Q07157; [2]): below the threshold
pKd (TX1BP3, O14907; [2]): below the threshold

PVRVCEETSL [OTULIN, Q96BN8]
pKd (DLG4_2, P78352; [2]): 4.2
pKd (DLG4_3, P78352; [2]): 3.96
pKd (DLG5_1, Q8TDM6; [2]): 3.52
pKd (FRMPD2_1, Q68DX3; [2]): below the threshold
pKd (FRMPD2_2, Q68DX3; [2]): 3.51
pKd (GRID2IP_1, A4D2P6; [2]): below the threshold
pKd (GRID2IP_2, A4D2P6; [2]): 4.75
pKd (GRIP1_5, Q9Y3R0; [2]): 3.78
pKd (IL16_1, Q14005; [2]): 3.53
pKd (LDB3, O75112; [2]): below the threshold
pKd (LNX2_2, Q8N448; [2]): below the threshold
pKd (MAGI2_2, Q86UL8; [2]): 4.09
pKd (MAGI2_3, Q86UL8; [2]): below the threshold
pKd (MAGI2_5, Q86UL8; [2]): 4.13
pKd (MAGI3_2, Q5TCQ9; [2]): 3.71
pKd (MPDZ_12, O75970; [2]): below the threshold
pKd (NHERF3_4, Q5T2W1; [2]): below the threshold
pKd (NOS1, P29475; [2]): 3.79
pKd (PARD3_3, Q8TEW0; [2]): 3.59
pKd (PDZRN3_1, Q9UPQ7; [2]): 4.99
pKd (SCRIB_2, Q14160; [2]): 4.7
pKd (SNTG1, Q9NSN8; [2]): 4.28
pKd (SNTG2, Q9NY99; [2]): 4.63
pKd (SNX27, Q96L92; [2]): 5.58
pKd (SYNJ2BP, P57105; [2]): 4.74
pKd (TIAM2, Q8IVF5; [2]): below the threshold
pKd (TJP1_2, Q07157; [2]): below the threshold
pKd (TX1BP3, O14907; [2]): 4.37
